Assay results: paper PMC2791442

Assays:
Assay in all cases: EMSA
Conditions in all cases: EMSA: 200 ng protein, 5 ng 3'-biotin-labeled promoter DNA, 6% DNA retardation gel, 100 V at 4 C; binding buffer, salt and pH not stated
[1] = target: T1, MqsA-F (Escherichia coli) (UniProt Q46864)
T1 sequence: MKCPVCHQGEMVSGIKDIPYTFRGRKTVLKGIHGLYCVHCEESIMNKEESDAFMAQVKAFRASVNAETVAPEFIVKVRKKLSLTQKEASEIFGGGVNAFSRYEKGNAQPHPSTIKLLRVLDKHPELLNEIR

[2] = target: T2, MqsA-C (Escherichia coli) (UniProt Q46864)
T2 sequence: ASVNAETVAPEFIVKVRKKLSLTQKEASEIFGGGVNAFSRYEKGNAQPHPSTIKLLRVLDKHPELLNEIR

[3] = target: T3, MqsA-N (Escherichia coli) (UniProt Q46864)
T3 sequence: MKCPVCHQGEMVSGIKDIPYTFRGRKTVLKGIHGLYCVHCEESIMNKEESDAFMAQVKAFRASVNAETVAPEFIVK

[4] = target: MqsR;MqsA-F (Escherichia coli;Escherichia coli) (UniProt Q46865+Q46864)
[5] = target: MqsR;MqsA-N (Escherichia coli;Escherichia coli) (UniProt Q46865+Q46864)
Chain of MqsR;MqsA-N (Escherichia coli;Escherichia coli) (Q46865 whole entry, one chain of several): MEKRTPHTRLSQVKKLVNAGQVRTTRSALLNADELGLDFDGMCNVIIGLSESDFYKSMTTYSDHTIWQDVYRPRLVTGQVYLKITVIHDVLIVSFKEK

Chain of MqsR;MqsA-F (Escherichia coli;Escherichia coli) (Q46865 whole entry, one chain of several): as above

Sequence	binding [1]	binding [2]	binding [3]	binding [4]	binding [5]
CCTGCAGAGTCAAACTGACATGTTTCATTTTTCCCGTTCCAGGCATTTTAATTCCTTCGCGTGTTTTCTGTCCAACCCTGCCTGCATGGCAGAAGGAATTCACCTGGTGTATTAAAGTGAATAATCATAAACCACTCACCTTTGTTGTTATTAGCAGCAGAACAATGATGTGGTTAGTTAATTAAAGCTGAAAATAAGCTTTTTGCCTGGATTTTTATGGCGGCTTACGCCGCCGTTGAAACTTTAATCATCACCCGCCACGCGGATCACCACTTTGC (double strand) [PmcbR]	binds				
CGTGTATGTGGTGTGCGTTTTTCCATAACCCCCGCCTCCCTGTTACTTTAGTTATAACCTAAAAGGTTAATTACAGCAATGAAAAAGCACCTAAAAGGTTAGTTAGATGTACGGAGATAGTGACCACACAAAACGTATTCTTTAAGGAAAGTGATTGACCATATAAGAAAGTGGCGCATTAGTAGCGCCAGTTTGAAGCAGGAATTTATAAGGGAAGCTGGAGTCAGGCATCAC (double strand) [PmqsR]	binds	binds	no binding	binds	no binding
CAGTCATCCGGTATAGTTCTTCATAATCTCTGCAAAATCATCGTGTTGTAATATTCTCTCATCACTCTCCATCAAATTTTCTTTTTTTCTCCATAATTGGCGCAAAAGTGTTTTTTACACTTTCATTGTTTTACCGTTGCTCTGATTAATTGACGCTAAAGTCAGTAAAGTTAATCTCGTCAACACGGCACGCTACTTAAGAAAGCCGTAATAAATAACTGAAAGGAAGGATATAGAATATGCGTAAATTAACTGCACTGTTTGTTGCC (double strand) [Pspy]	binds				
CGGGTTAGTGCTAGTATGAAAAAGTGAGTCCTGTCCCGCTTCCTTCCTAATTGTAATTTTTCGTAATAATGCGATGAAAACCTGCAAAGAGTGGCTTATAGTTAAGCTAACAAACGAGAGGGCAAGTCCAGGTCAGTAAGTTTTTTCCATCCCGAAAGGTGTCCGTTAGTTCAACCGCTAAGAAGGGGACGCGTTATGGATGAATACTCACCCAAAAGACATGATATCGCACAGCTTAAGT (double strand) [PtomB]	no binding			no binding	
